B2: endogenous β-catenin (other, human, UniProt P35222 2-781, looked up)
chain: ATQADLMELDMAMEPDRKAAVSHWQQQSYLDSGIHSGATTTAPSLSGKGNPEEEDVDTSQVLYEWEQGFSQSFTQEQVADIDGQYAMTRAQRVRAAMFPETLDEGMQIPSTQFDAAHPTNVQRLAEPSQMLKHAVVNLINYQDDAELATRAIPELTKLLNDEDQVVVNKAAVMVHQLSKKEASRHAIMRSPQMVSAIVRTMQNTNDVETARCTAGTLHNLSHHREGLLAIFKSGGIPALVKMLGSPVDSVLFYAITTLHNLLLHQEGAKMAVRLAGGLQKMVALLNKTNVKFLAITTDCLQILAYGNQESKLIILASGGPQALVNIMRTYTYEKLLWTTSRVLKVLSVCSSNKPAIVEAGGMQALGLHLTDPSQRLVQNCLWTLRNLSDAATKQEGMEGLLGTLVQLLGSDDINVVTCAAGILSNLTCNNYKNKMMVCQVGGIEALVRTVLRAGDREDITEPAICALRHLTSRHQEAEMAQNAVRLHYGLPVVVKLLHPPSHWPLIKATVGLIRNLALCPANHAPLREQGAIPRLVQLLVRAHQDTQRRTSMGGTQQQFVEGVRMEEIVEGCTGALHILARDVHNRIVIRGLNTIPLFVQLLYSPIENIQRVAAGVLCELAQDKEAAEAIEAEGATAPLTELLHSRNEGVATYAAAVLFRMSEDKPQDYKKRLSVELTSSLFRTEPMAWNETADLGLDIGAQGEPLGYRQDDPSYRSFHSGGYGQDALGMDPMMEHEMGGHHPGADYPVDGLPDLGHAQDLMDGLPPGDSNQLAWFDTDL
notes: In EGF-treated cells it is tyrosine-phosphorylated (Y333) in the nucleus
B5: FLAG-tagged WT β-catenin (other, UniProt P35222 1-781, looked up)
chain: MATQADLMELDMAMEPDRKAAVSHWQQQSYLDSGIHSGATTTAPSLSGKGNPEEEDVDTSQVLYEWEQGFSQSFTQEQVADIDGQYAMTRAQRVRAAMFPETLDEGMQIPSTQFDAAHPTNVQRLAEPSQMLKHAVVNLINYQDDAELATRAIPELTKLLNDEDQVVVNKAAVMVHQLSKKEASRHAIMRSPQMVSAIVRTMQNTNDVETARCTAGTLHNLSHHREGLLAIFKSGGIPALVKMLGSPVDSVLFYAITTLHNLLLHQEGAKMAVRLAGGLQKMVALLNKTNVKFLAITTDCLQILAYGNQESKLIILASGGPQALVNIMRTYTYEKLLWTTSRVLKVLSVCSSNKPAIVEAGGMQALGLHLTDPSQRLVQNCLWTLRNLSDAATKQEGMEGLLGTLVQLLGSDDINVVTCAAGILSNLTCNNYKNKMMVCQVGGIEALVRTVLRAGDREDITEPAICALRHLTSRHQEAEMAQNAVRLHYGLPVVVKLLHPPSHWPLIKATVGLIRNLALCPANHAPLREQGAIPRLVQLLVRAHQDTQRRTSMGGTQQQFVEGVRMEEIVEGCTGALHILARDVHNRIVIRGLNTIPLFVQLLYSPIENIQRVAAGVLCELAQDKEAAEAIEAEGATAPLTELLHSRNEGVATYAAAVLFRMSEDKPQDYKKRLSVELTSSLFRTEPMAWNETADLGLDIGAQGEPLGYRQDDPSYRSFHSGGYGQDALGMDPMMEHEMGGHHPGADYPVDGLPDLGHAQDLMDGLPPGDSNQLAWFDTDL
notes: Transiently expressed in U87/EGFR or A431 cells; also called FLAG-β-catenin; not shown: FLAG tag
B6: FLAG-β-catenin Y333F (other, UniProt P35222 1-781, looked up)
chain: MATQADLMELDMAMEPDRKAAVSHWQQQSYLDSGIHSGATTTAPSLSGKGNPEEEDVDTSQVLYEWEQGFSQSFTQEQVADIDGQYAMTRAQRVRAAMFPETLDEGMQIPSTQFDAAHPTNVQRLAEPSQMLKHAVVNLINYQDDAELATRAIPELTKLLNDEDQVVVNKAAVMVHQLSKKEASRHAIMRSPQMVSAIVRTMQNTNDVETARCTAGTLHNLSHHREGLLAIFKSGGIPALVKMLGSPVDSVLFYAITTLHNLLLHQEGAKMAVRLAGGLQKMVALLNKTNVKFLAITTDCLQILAYGNQESKLIILASGGPQALVNIMRTYTFEKLLWTTSRVLKVLSVCSSNKPAIVEAGGMQALGLHLTDPSQRLVQNCLWTLRNLSDAATKQEGMEGLLGTLVQLLGSDDINVVTCAAGILSNLTCNNYKNKMMVCQVGGIEALVRTVLRAGDREDITEPAICALRHLTSRHQEAEMAQNAVRLHYGLPVVVKLLHPPSHWPLIKATVGLIRNLALCPANHAPLREQGAIPRLVQLLVRAHQDTQRRTSMGGTQQQFVEGVRMEEIVEGCTGALHILARDVHNRIVIRGLNTIPLFVQLLYSPIENIQRVAAGVLCELAQDKEAAEAIEAEGATAPLTELLHSRNEGVATYAAAVLFRMSEDKPQDYKKRLSVELTSSLFRTEPMAWNETADLGLDIGAQGEPLGYRQDDPSYRSFHSGGYGQDALGMDPMMEHEMGGHHPGADYPVDGLPDLGHAQDLMDGLPPGDSNQLAWFDTDL
notes: Transiently expressed in U87/EGFR or A431 cells; not shown: FLAG tag

Key:
endogenous β-catenin = target: B2; assay: co-IP, EGF-treated U87/EGFR cells
endogenous c-Src = endogenous c-Src (human, UniProt P12931 2-536); assay: co-IP from nuclear fractions of U87/EGFR cells
[1] = target: APC (endogenous, A431 cells) (UniProt P25054 2-2843, limits assumed); assay: co-IP, A431 cells
APC (endogenous, A431 cells), sequence (P25054 2-2843 limits assumed): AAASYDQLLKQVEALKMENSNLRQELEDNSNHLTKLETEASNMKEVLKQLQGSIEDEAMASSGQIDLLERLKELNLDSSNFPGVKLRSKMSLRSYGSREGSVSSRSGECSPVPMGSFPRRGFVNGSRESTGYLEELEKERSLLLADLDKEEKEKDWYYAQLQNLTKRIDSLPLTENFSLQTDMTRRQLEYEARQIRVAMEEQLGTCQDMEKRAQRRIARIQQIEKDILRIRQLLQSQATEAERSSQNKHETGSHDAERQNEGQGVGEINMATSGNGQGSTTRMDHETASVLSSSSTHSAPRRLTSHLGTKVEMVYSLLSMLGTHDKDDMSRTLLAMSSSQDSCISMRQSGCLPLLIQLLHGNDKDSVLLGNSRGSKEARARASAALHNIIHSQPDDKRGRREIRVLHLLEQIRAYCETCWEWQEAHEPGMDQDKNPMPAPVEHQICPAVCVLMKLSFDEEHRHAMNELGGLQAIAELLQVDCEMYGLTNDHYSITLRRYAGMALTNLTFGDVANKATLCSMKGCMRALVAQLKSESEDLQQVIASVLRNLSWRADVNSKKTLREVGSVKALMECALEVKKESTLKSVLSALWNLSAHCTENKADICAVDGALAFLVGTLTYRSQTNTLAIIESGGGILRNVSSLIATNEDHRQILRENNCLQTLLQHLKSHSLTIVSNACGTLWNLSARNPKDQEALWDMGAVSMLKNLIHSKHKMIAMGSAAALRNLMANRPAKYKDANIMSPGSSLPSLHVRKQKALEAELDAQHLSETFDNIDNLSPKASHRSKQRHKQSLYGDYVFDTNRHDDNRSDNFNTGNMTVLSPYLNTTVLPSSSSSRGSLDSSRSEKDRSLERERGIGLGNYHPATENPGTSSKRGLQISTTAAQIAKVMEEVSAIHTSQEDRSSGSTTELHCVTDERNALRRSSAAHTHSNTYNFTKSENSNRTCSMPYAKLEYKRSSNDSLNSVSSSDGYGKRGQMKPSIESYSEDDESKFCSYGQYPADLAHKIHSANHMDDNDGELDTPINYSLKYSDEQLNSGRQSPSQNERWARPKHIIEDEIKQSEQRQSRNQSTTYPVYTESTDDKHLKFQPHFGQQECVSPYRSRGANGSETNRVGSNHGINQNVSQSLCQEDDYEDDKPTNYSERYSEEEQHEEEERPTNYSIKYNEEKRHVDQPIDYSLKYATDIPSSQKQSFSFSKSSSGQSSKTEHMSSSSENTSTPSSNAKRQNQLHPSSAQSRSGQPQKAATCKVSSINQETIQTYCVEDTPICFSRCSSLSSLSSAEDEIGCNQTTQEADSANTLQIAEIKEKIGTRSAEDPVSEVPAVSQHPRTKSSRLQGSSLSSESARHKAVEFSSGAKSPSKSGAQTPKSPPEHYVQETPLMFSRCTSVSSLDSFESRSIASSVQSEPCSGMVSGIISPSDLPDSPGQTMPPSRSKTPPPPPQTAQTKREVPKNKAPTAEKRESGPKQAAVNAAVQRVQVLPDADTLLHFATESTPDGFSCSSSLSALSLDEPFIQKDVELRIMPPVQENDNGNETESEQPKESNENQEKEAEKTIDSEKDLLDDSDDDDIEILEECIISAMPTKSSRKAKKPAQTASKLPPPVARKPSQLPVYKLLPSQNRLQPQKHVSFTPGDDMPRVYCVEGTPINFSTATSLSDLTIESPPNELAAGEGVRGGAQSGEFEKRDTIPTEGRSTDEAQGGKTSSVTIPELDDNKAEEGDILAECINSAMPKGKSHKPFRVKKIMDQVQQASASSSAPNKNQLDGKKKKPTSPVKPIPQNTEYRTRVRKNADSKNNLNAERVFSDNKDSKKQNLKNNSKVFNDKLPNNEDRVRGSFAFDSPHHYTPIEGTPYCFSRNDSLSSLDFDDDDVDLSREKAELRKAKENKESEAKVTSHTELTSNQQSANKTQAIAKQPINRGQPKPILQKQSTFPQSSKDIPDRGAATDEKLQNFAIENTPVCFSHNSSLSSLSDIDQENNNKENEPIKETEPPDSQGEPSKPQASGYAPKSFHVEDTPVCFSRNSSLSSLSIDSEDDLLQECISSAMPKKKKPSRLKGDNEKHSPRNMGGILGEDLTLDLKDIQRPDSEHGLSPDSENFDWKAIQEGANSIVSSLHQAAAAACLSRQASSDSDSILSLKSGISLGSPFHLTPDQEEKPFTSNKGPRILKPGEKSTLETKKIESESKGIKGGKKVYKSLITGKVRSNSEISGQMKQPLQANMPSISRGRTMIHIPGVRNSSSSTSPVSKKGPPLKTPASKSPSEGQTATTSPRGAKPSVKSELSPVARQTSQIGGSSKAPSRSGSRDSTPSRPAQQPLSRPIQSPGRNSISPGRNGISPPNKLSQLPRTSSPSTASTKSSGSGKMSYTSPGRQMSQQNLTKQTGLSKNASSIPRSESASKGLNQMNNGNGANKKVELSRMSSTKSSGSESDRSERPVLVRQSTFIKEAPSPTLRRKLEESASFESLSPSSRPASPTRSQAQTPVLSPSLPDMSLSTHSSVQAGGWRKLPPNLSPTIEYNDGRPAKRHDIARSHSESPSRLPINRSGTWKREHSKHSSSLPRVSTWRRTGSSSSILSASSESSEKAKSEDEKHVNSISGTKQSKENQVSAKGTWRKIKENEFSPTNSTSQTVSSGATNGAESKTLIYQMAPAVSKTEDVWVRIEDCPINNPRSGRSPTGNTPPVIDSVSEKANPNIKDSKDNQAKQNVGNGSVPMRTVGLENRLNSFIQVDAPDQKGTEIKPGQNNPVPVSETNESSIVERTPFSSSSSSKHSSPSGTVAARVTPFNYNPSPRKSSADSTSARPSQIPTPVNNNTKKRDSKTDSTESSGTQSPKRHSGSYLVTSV

[2] = target: AXIN2 (endogenous, A431 cells) (UniProt Q9Y2T1 1-843); assay: co-IP, A431 cells
AXIN2 (endogenous, A431 cells), sequence (Q9Y2T1 whole entry): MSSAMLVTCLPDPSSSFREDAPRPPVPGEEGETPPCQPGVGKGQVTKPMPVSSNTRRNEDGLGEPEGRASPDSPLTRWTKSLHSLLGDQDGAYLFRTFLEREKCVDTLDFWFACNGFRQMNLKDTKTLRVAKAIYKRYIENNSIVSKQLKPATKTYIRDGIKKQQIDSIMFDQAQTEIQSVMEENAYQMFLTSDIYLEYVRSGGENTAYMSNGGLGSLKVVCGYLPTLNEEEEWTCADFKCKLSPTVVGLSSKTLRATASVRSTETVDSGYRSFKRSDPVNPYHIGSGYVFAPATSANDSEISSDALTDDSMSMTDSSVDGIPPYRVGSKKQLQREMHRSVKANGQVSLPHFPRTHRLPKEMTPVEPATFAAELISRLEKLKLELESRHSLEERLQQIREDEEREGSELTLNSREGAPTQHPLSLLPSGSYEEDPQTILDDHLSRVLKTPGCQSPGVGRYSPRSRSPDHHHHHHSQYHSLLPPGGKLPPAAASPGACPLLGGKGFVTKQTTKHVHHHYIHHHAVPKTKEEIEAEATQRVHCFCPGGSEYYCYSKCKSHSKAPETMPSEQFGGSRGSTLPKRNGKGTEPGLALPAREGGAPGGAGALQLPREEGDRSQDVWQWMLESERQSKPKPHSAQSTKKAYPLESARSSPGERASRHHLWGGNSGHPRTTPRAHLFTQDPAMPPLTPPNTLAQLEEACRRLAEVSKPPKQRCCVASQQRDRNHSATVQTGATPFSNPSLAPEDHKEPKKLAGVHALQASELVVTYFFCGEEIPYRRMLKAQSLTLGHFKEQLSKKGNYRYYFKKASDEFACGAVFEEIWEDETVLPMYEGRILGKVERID

FLAG-tagged WT β-catenin = target: B5; assay: co-IP, A431 cells
FLAG-β-catenin Y333F = target: B6; assay: co-IP, A431 cells
purified GST-importin α5 = target: T1, purified GST-importin α5 (human, UniProt P52294 1-538, limits assumed); assay: GST pull-down from lysates of EGF-treated U87/EGFR cells
T1 construct: Expressed in bacteria and purified; not shown: GST

B1: FLAG-PKM2 K367M (kinase-dead) (enzyme)
chain: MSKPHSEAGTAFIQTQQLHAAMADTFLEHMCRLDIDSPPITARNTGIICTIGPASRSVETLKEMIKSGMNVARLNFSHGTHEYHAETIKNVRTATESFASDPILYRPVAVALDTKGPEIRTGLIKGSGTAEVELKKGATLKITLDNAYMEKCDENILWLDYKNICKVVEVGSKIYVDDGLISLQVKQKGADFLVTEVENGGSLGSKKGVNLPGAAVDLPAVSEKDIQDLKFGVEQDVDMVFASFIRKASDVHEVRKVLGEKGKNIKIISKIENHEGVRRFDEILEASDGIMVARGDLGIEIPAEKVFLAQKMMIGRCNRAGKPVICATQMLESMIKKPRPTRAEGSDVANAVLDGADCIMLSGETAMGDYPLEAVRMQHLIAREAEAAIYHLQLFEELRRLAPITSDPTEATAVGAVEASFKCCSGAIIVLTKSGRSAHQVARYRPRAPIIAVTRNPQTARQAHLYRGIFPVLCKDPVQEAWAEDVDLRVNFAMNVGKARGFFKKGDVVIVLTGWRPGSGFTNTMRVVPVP
notes: Expressed in U87/EGFR cells
Endogenous β-catenin
  binding result: binds

## B2
Endogenous c-Src
  binding result: binds

B3: FLAG-PKM2 K433E (enzyme)
chain: not shown
notes: Expressed in U87/EGFR cells; also called PKM2 K433E mutant
Endogenous β-catenin
  binding result: no binding

B4: FLAG-tagged wild-type PKM2 (enzyme)
chain: not shown
notes: Expressed in U87/EGFR cells; also called FLAG-PKM2; WT FLAG-PKM2
Endogenous β-catenin
  binding result: binds

## B5
[1]
  binding result: binds
[2]
  binding result: binds

## B6
[1]
  binding result: binds
[2]
  binding result: binds

B7: E-cadherin (endogenous, A431 cells) (other, UniProt P12830 155-882, looked up)
chain: DWVIPPISCPENEKGPFPKNLVQIKSNKDKEGKVFYSITGQGADTPPVGVFIIERETGWLKVTEPLDRERIATYTLFSHAVSSNGNAVEDPMEILITVTDQNDNKPEFTQEVFKGSVMEGALPGTSVMEVTATDADDDVNTYNAAIAYTILSQDPELPDKNMFTINRNTGVISVVTTGLDRESFPTYTLVVQAADLQGEGLSTTATAVITVTDTNDNPPIFNPTTYKGQVPENEANVVITTLKVTDADAPNTPAWEAVYTILNDDGGQFVVTTNPVNNDGILKTAKGLDFEAKQQYILHVAVTNVVPFEVSLTTSTATVTVDVLDVNEAPIFVPPEKRVEVSEDFGVGQEITSYTAQEPDTFMEQKITYRIWRDTANWLEINPDTGAISTRAELDREDFEHVKNSTYTALIIATDNGSPVATGTGTLLLILSDVNDNAPIPEPRTIFFCERNPKPQVINIIDADLPPNTSPFTAELTHGASANWTIQYNDPTQESIILKPKMALEVGDYKINLKLMDNQNKDQVTTLEVSVCDCEGAAGVCRKAQPVEAGLQIPAILGILGGILALLILILLLLLFLRRRAVVKEPLLPPEDDTRDNVYYYDEEGGGEEDQDFDLSQLHRGLDARPEVTRNDVAPTLMSVPRYLPRPANPDEIGNFIDENLKAADTDPTAPPYDSLLVFDYEGSGSEAASLSSLNSSESDKDQDYDYLNEWGNRFKKLADMYGGGEDD
FLAG-tagged WT β-catenin
  binding result: binds
FLAG-β-catenin Y333F
  binding result: binds

B8: FLAG-PKM2 R399/400A (enzyme)
chain: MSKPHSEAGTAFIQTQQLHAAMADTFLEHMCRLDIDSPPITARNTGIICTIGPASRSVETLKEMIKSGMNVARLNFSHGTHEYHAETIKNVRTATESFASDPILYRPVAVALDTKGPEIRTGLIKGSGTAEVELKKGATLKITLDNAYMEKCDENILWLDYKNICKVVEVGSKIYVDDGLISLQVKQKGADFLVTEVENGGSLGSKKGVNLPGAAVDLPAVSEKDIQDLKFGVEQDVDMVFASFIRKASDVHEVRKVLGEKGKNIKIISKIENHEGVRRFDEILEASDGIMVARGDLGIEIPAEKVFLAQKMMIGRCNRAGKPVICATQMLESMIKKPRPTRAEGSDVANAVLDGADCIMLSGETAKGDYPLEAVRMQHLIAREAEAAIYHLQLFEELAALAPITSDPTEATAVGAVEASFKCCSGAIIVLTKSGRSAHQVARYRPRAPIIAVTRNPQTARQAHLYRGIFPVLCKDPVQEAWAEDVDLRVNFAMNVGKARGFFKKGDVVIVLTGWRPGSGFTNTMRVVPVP
notes: Expressed in U87/EGFR cells
Purified GST-importin α5
  binding result: no binding

From patent US20150073033A1 (University of Texas, published 2015)
